Results taken from article PMC8894703, “ZNF191 alters DNA methylation and activates the PI3K‐AKT pathway in hepatoma cells via transcriptional regulation of DNMT1”.

B1: DNMT1(nt-240) EMSA probe, 30 bp (dsDNA)
DNA 1: CCTGAAAGAATGAATGAATGAATGCCTCGG
DNA 2: CCGAGGCATTCATTCATTCATTCTTTCAGG
B2: Mut-DNMT1(nt-240) EMSA probe, 30 bp (dsDNA)
DNA 1: CCTGAAAGTTTGTTTGTTTGTTTGCCTCGG
DNA 2: CCGAGGCAAACAAACAAACAAACTTTCAGG

Target: ZNF191 (zinc finger protein 191) (UniProt P17028 1-368)
Experiment: EMSA; LightShift Chemiluminescent EMSA kit (Pierce); buffer, salt, pH and temperature not given; unlabeled oligonucleotides used for competition, outcome not given
Conditions: protein: recombinant; label: 5' biotin; blunt

Sequence of ZNF191 (zinc finger protein 191) (P17028 whole entry): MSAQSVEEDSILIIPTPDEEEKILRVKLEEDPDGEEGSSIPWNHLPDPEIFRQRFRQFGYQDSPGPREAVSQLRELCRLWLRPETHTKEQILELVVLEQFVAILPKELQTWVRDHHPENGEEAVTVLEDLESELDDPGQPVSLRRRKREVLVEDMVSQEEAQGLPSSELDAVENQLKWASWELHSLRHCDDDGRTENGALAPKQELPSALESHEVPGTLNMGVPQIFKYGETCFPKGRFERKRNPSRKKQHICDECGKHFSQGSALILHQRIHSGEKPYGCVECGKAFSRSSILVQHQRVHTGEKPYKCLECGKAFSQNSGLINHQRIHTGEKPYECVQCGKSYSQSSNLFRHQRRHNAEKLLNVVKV

Binder	binding result
B1	binds
B2	no binding
